Data published in patent US20240252614A1.

Key:
Conditions in all cases: remark: other sources report otherwise
[1] = molecular target: hMPV A F WT Control (hMPV A), Q6WB98; test: BLI, no stress
hMPV048 (hMPV A), Q6WB98 = test: BLI, no stress
hMPV052 (hMPV A), Q6WB98 = test: BLI, no stress
hMPV053 (hMPV A), Q6WB98 = test: BLI, no stress
hMPV058 (hMPV A), Q6WB98 = test: BLI, no stress
hMPV062 (hMPV A), Q6WB98 = test: BLI, no stress
hMPV067 (hMPV A), Q6WB98 = test: BLI, no stress
hMPV069 (hMPV A), Q6WB98 = test: BLI, no stress
hMPV071 (hMPV A), Q6WB98 = test: BLI, no stress
[2] = molecular target: hMPV A F WT Control (hMPV A), Q6WB98; test: BLI, no stress; remark: listed apart in the source
hMPV078 (hMPV A), Q6WB98 [3] = test: BLI, no stress
hMPV079 (hMPV A), Q6WB98 [4] = test: BLI, no stress
hMPV081 (hMPV A), Q6WB98 [5] = test: BLI, no stress
hMPV082 (hMPV A), Q6WB98 [6] = test: BLI, no stress
hMPV083 (hMPV A), Q6WB98 [7] = test: BLI, no stress
hMPV084 (hMPV A), Q6WB98 [8] = test: BLI, no stress
hMPV085 (hMPV A), Q6WB98 [9] = test: BLI, no stress
hMPV086 (hMPV A), Q6WB98 [10] = test: BLI, no stress
hMPV087 (hMPV A), Q6WB98 [11] = test: BLI, no stress
hMPV088 (hMPV A), Q6WB98 [12] = test: BLI, no stress
hMPV089 (hMPV A), Q6WB98 [13] = test: BLI, no stress
hMPV090 (hMPV A), Q6WB98 [14] = test: BLI, no stress
hMPV097 (hMPV A), Q6WB98 [15] = test: BLI, no stress
[16] = molecular target: hMPV A F WT Control (hMPV A), Q6WB98; test: BLI, 53C stress
hMPV080 (hMPV A), Q6WB98 = test: BLI, 53C stress
[17] = molecular target: hMPV A F WT Control (hMPV A), Q6WB98; test: BLI, 53C stress; remark: listed apart in the source
hMPV078 (hMPV A), Q6WB98 [18] = test: BLI, 53C stress
hMPV079 (hMPV A), Q6WB98 [19] = test: BLI, 53C stress
hMPV081 (hMPV A), Q6WB98 [20] = test: BLI, 53C stress
hMPV082 (hMPV A), Q6WB98 [21] = test: BLI, 53C stress
hMPV083 (hMPV A), Q6WB98 [22] = test: BLI, 53C stress
hMPV084 (hMPV A), Q6WB98 [23] = test: BLI, 53C stress
hMPV085 (hMPV A), Q6WB98 [24] = test: BLI, 53C stress
hMPV086 (hMPV A), Q6WB98 [25] = test: BLI, 53C stress
hMPV087 (hMPV A), Q6WB98 [26] = test: BLI, 53C stress
hMPV088 (hMPV A), Q6WB98 [27] = test: BLI, 53C stress
hMPV089 (hMPV A), Q6WB98 [28] = test: BLI, 53C stress
hMPV090 (hMPV A), Q6WB98 [29] = test: BLI, 53C stress
hMPV097 (hMPV A), Q6WB98 [30] = test: BLI, 53C stress

B1: MPE8 mAb (antibody, V domains shown)
VH: EVQLVESGGGLVKPGGSLRLSCAASGFTFSSYSMNWVRQAPGKGLEWVSSISASSSYSDYADSAKGRFTISRDNAKTSLFLQMNSLRAEDTAIYFCARARATGYSSITPYFDIWGQGTLVTVSS
VL: QSVVTQTPSVSGAPGQRVTISCTGSSSNIGAGYDVHWYQQLPGTAPKLLIYDNNNRPSGVPDRFSASKSGTSASLAITGLQAEDEADYYCQSYDRNLSGVFGTGTKVTVL
Work on B1 yielded a Response Shift [1] of 0.69 nm, a Response Shift (hMPV048 (hMPV A), Q6WB98) of 0.596 nm and a Response Shift (hMPV052 (hMPV A), Q6WB98) of 0.716 nm. It also gave a Response Shift (hMPV053 (hMPV A), Q6WB98) of 0.624 nm, a Response Shift (hMPV058 (hMPV A), Q6WB98) of 0.684 nm and a Response Shift (hMPV062 (hMPV A), Q6WB98) of 0.713 nm. It also gave a Response Shift (hMPV067 (hMPV A), Q6WB98) of 0.744 nm, a Response Shift (hMPV069 (hMPV A), Q6WB98) of 0.651 nm and a Response Shift (hMPV071 (hMPV A), Q6WB98) of 0.804 nm. For the same binder, the Response Shift [2] was 0.926 nm, the Response Shift (hMPV078 (hMPV A), Q6WB98 [3]) was 0.955 nm and the Response Shift (hMPV079 (hMPV A), Q6WB98 [4]) was 0.887 nm. For the same binder, the Response Shift (hMPV081 (hMPV A), Q6WB98 [5]) was 0.955 nm, the Response Shift (hMPV082 (hMPV A), Q6WB98 [6]) was 0.949 nm and the Response Shift (hMPV083 (hMPV A), Q6WB98 [7]) was 0.805 nm. For the same binder, the Response Shift (hMPV084 (hMPV A), Q6WB98 [8]) was 0.924 nm, the Response Shift (hMPV085 (hMPV A), Q6WB98 [9]) was 0.877 nm and the Response Shift (hMPV086 (hMPV A), Q6WB98 [10]) was 0.834 nm. The Response Shift (hMPV087 (hMPV A), Q6WB98 [11]) was 0.979 nm, the Response Shift (hMPV088 (hMPV A), Q6WB98 [12]) was 0.974 nm and the Response Shift (hMPV089 (hMPV A), Q6WB98 [13]) was 0.959 nm. It also gave a Response Shift (hMPV090 (hMPV A), Q6WB98 [14]) of 0.903 nm, a Response Shift (hMPV097 (hMPV A), Q6WB98 [15]) of 0.918 nm and a Response Shift [16] of 0.037 nm. The Response Shift (hMPV080 (hMPV A), Q6WB98) was 0.798 nm, the Response Shift [17] was 0.096 nm and the Response Shift (hMPV078 (hMPV A), Q6WB98 [18]) was 0.939 nm. For the same binder, the Response Shift (hMPV079 (hMPV A), Q6WB98 [19]) was 0.861 nm, the Response Shift (hMPV081 (hMPV A), Q6WB98 [20]) was 0.915 nm and the Response Shift (hMPV082 (hMPV A), Q6WB98 [21]) was 0.985 nm. It also gave a Response Shift (hMPV083 (hMPV A), Q6WB98 [22]) of 0.796 nm, a Response Shift (hMPV084 (hMPV A), Q6WB98 [23]) of 0.908 nm and a Response Shift (hMPV085 (hMPV A), Q6WB98 [24]) of 0.889 nm. For the same binder, the Response Shift (hMPV086 (hMPV A), Q6WB98 [25]) was 0.86 nm, the Response Shift (hMPV087 (hMPV A), Q6WB98 [26]) was 0.903 nm and the Response Shift (hMPV088 (hMPV A), Q6WB98 [27]) was 0.937 nm. For the same binder, the Response Shift (hMPV089 (hMPV A), Q6WB98 [28]) was 0.928 nm, the Response Shift (hMPV090 (hMPV A), Q6WB98 [29]) was 0.909 nm and the Response Shift (hMPV097 (hMPV A), Q6WB98 [30]) was 0.935 nm.
